According to paper PMC6750725:

Molecular target: A/equine/NY/49/73 H7N7 hemagglutinin (crystallization construct) (influenza A virus A/equine/NY/49/73 (H7N7))
Assay: SEC

## A/equine/NY/49/73 H7N7 hemagglutinin (crystallization construct) (natural protein)
  stoichiometry N: 3
